Results taken from paper PMC9280360.
Substitutions are numbered along the chain they refer to. Names may count otherwise. “And” between values parts separate entries of the source, which are not always exact repeats. Identical values can stand only once.

B1: Flag-tagged mutant RalA (RALA c.G482A, p.Arg161Gln) (natural protein)
chain: MAANKPKGQNSLALHKVIMVGSGGVGKSALTLQFMYDEFVEDYEPTKADSYRKKVVLDGEEVQIDILDTAGQEDYAAIRDNYFRSGEGFLCVFSITEMESFAATADFREQILRVKEDENVPFLLVGNKSDLEDKRQVSVEEAKNRAEQWNVNYVETSAKTQANVDKVFFDLMREIRARKMEDSKEKNGKKKRKSLAKRIRERCCIL
B2: Flag-tagged wild-type RalA (RALA, NM_005402) (natural protein)
chain: B1 chain with Q161R

Molecular target: proprietary Ral effector protein (Ral-BP binding plate of the RalA G-LISA Activation Assay Kit)
Test: ELISA; RalA G-LISA Activation Assay Kit; purified RalA incubated in the presence or absence of 15 uM GTP for 1.5 h at 25 C, then 50 ng of the RalA/GTP mixture applied to the Ral-BP binding plate (effector immobilised); n = 3

| Binder | downstream effector binding (G-LISA signal) |
| --- | --- |
| B1 | 3.24 and 3.33 |
| B2 | 1.74 |
